Assay results taken from paper PMC7518282.

Test system: PAL
Test: plate RNA binding assay (RiboGreen), immobilized PAL
Details: 12 mM HEPES/KOH pH 7.2, 135 mM KCl, 10 mM NaCl, 10% w/v glycerol, 0.5 mg/mL heparin, 0.5 mg/mL BSA, 25 C, 30 min, 465 nm light or dark, 100 or 1000 nM RNA

Sequence	binding signal (% of aptamer 53 in light) (1000 nM RNA, dark (block inferred from row order), mean of 6 printed values)	binding signal (% of aptamer 53 in light)	binding signal (% (normalization reference)) (blue light 465 nm)
GGGGUGGAAUCUUUACAGGACUAUCACGGUACAGCACCGAUGCCGGAUAGUCCUGUAAAGAUUCCACUU [SHCDK1m]	1.35	3.97	–
GGGAGGACGAUGCGGCCCGUACAGCAGCGAUGCGGGUCGCGUGUCCACCCCGGCUCAGACGACUCGCUGAGGAUCCGAGA [aptamer 53]	–	–	100
